Reference: patent US20250320303A1 (SHENGHE CHINA BIOPHARMACEUTICAL, published 2025)

T1: human W3785-hProl.ECD.His (Human-TNFR2-His) protein (human, UniProt P20333 23-257)
T1 construct: extracellular domain; not shown: His tag
T1 sequence (looked up): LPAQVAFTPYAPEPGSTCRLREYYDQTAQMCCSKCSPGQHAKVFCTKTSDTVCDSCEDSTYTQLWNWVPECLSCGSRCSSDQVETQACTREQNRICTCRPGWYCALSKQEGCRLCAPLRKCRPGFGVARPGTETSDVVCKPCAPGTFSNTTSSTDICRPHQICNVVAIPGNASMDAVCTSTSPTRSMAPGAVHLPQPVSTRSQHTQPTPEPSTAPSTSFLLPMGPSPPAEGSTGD

T2: human TNFR2 (tumor necrosis factor receptor 2), on cells (human, UniProt P20333 23-461)
T2 construct: whole, on cells; also called hTNFR2; CHOK1-hTNFR2
T2 sequence (looked up): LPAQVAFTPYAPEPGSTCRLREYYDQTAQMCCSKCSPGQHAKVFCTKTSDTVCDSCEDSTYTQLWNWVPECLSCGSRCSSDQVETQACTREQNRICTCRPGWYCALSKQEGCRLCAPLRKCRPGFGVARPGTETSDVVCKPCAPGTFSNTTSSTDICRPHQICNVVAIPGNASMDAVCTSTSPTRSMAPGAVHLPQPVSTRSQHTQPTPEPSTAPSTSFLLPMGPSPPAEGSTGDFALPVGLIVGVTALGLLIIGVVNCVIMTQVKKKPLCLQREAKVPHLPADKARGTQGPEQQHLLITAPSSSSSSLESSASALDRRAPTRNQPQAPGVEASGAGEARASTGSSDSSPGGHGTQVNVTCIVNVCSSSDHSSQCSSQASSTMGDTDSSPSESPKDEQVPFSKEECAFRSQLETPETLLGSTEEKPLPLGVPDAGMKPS

T3: Recombinant human TNFR2-His Tag protein (Sino, Cat: 10417-H08H) (human, UniProt P20333 23-257)
T3 construct: Bought protein; also called hTNFR2; not shown: His tag
T3 sequence (looked up): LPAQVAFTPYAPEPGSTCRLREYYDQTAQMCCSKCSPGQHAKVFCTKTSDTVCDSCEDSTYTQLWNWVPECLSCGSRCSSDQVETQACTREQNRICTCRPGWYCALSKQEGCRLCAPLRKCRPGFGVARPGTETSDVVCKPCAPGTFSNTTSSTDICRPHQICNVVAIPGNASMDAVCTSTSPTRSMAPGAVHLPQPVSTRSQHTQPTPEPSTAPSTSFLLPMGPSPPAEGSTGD


Legend:
[1] = target: T1, human W3785-hProl.ECD.His …; assay: BLI (Octet Red96e), antibody on AHC sensor, Human-TNFR2-His in solution, single concentration
Description: After equilibration of the AHC sensor with 0.02% PBST (0.02% Tween 20, pH 7.4, 1*PBS) as buffer for 60 s, the TNFR2 antibody in the sample plate was immobilized for 300 s, and second equilibration was performed for 180 s. 100 nM of human W3785-hProl.ECD.His (Human-TNFR2-His) protein was bound with the TNFR2 antibody for 300 s and then dissociated for 600 s. After dissociation, 10 mM glycine (pH 2.0) was used as regeneration buffer to regenerate for 30 s.

[2] = target: T1, human W3785-hProl.ECD.His …; assay: BLI (Octet Red96e), antibody on AHC sensor, Human-TNFR2-His in solution, multiple concentrations
[3] = target: T2, human TNFR2 (tumor necrosis factor …); assay: flow cytometry on CHOK1-hTNFR2 cells
Description: CHOK1-hTNFR2 cells were plated at 1×10⁵/well (containing 1% BSA). 100 μL of isotype control and candidate antibodies were added at a concentration of 100 nm and 4-fold diluted in 11 gradients (containing 1% BSA). Cells were incubated at 4° C. for 1 hour and then washed twice with excess FACS buffer. Cells were resuspended in 100 μL of FACS buffer, and 100 μL of goat anti-rat IgG Fc-AF647 (1:500) containing 1% BSA was added, incubated at 4° C. without light for 30 minutes and washed twice with excess FACS buffer. Cells were fixed in fixation buffer and subsequently analyzed by flow cytometry. The FACS method screened for candidate antibodies with high specific binding activity to human TNFR2.

[4] = target: T3, Recombinant human TNFR2-His Tag protein …; assay: SPR (Biacore 8K), antibody captured by anti-rat Fc, 10 nM TNFR2-His as analyte, 1:1 model
Description: The CM5 sensor chip was activated at a flow rate of […] for 420 s. The channel was then injected with 30 μg/mL of anti-rat Fc IgG in 10 mM NaAc (pH 4.5) at a flow rate of 10 μL/min. The chip was inactivated with 1 M ethanolamine-hydrochloric acid (GE) for 420 s at a flow rate of 10 μL/min.
Candidate antibodies in running buffer 1×HBS-EP+(10 mM HEPES, 150 mM NaCl, 3 mM EDTA, 0.05% Tween 20, pH 7.4) were captured onto Fc2 with anti-rat Fc IgG at a flow rate of 10 μL/min. The 10 nM recombinant human TNFR2-His Tag protein (Sino; Cat: 10417-H08H) and running buffer were sequentially injected into Fc1-Fc2 at a flow rate of […], bound for 180 s, and then dissociated for 3600 s. 10 mM glycine (pH 1.5) was injected as regeneration buffer after each dissociation.
Result plots for the reference channel Fc1 and the buffer channel were subtracted from the test result plots. The experimental data fit the 1:1 binding model. The molecular weight of 26.6 kDa was used to calculate the molar concentration of recombinant human TNFR2-His Tag protein.

[5] = target: T3, Recombinant human TNFR2-His Tag protein …; assay: competition ELISA: captured TNFR2-His, antibody titrated against 1.6 nM biotin-TNF-alpha (competitor)
Description: Anti-His antibody (1 μg/mL) was coated at 50 μL/well, incubated at 4° C. overnight and washed 3 times with PBST. 2% BSA was added at 200 μL/well, incubated at room temperature for 1 hour and washed 3 times with PBST. 0.25 μg/mL (containing 2% BSA) of recombinant human TNFR2-His Tag protein (Sino; Cat: 10417-H08H) was added at 50 μL/well, incubated for 1 hour at room temperature and washed 3 times with PBST. Primary antibody (isotype control or candidate antibody) was added at a concentration of 100 nM and diluted 4-fold in 11 gradients with a solution containing 1.6 nM recombinant human TNF-alpha-Biotin protein (Sino; Cat: 10602-HANE-B) and 2% BSA, incubated for 2 hours at room temperature and washed 3 times with PBST. Secondary antibody SA-HRP (1:5000) containing 2% BSA was added at 50 μL/well, incubated for 1 hour at room temperature and washed 3 times with PBST.
After washing, TMB developed the color for 10 min, and the OD450 reading was determined by the enzyme labeler after the display was terminated. Based on the experimental results, it was judged whether the candidate antibodies had ligand blocking activity. As shown in Table 2 and FIG. 2, 2 sequences show better ligand blocking ability than BMK2; 6 sequences show equivalent ligand blocking ability to BMK2.

[6] = target: T2, human TNFR2 (tumor necrosis factor …); assay: cell-based or functional assay
[7] = target: T1, human W3785-hProl.ECD.His …; assay: indirect ELISA on coated Human-TNFR2-His
Description: (1) Coating: Human-TNFR2-His was diluted to 0.5 μg/mL with coating solution (1×PBS, pH 7.4), and coated into a 96-well ELISA plate at 100 μL/well at 4° C. overnight. The coating solution was poured off, and the plate was washed with 1×PBST at 300 μL per well, washed with a plate cleaning instrument for 4 times, and patted dry on sheet paper. [0184] (2) Blocking: it was blocked with 3% non-fat dry milk at 300 μL/well, and incubated at 37° C. for 1 h. The blocking solution was poured off, washed by a plate cleaning instrument for 4 times, and patted dry on sheet paper. [0185] (3) Sample dilution: the reference product and the test product were diluted with 3% non-fat dry milk to 10 μg/mL, and this was used as the initial concentration for 3-fold dilution with a total of 11 gradients of dilution, and another one blank well was set up, and only diluent was added. It was incubated at 100 μL/well at 37° C. for 1 h. Liquid in the wells was discarded, washed by a plate cleaning instrument for 4 times, and patted dry on the sheet paper. [0186] (4) Addition of enzyme-labeled secondary antibody: Peroxidase-conjugated AffiniPure F(ab′)2 Fragment Goat Anti-Human IgG was diluted with 3% non-fat dry milk at 1:20,000. It was incubated at 100 μL/well at 37° C. for 1 h. It was washed by a plate cleaning instrument for 6 times and patted dry on sheet paper. […] (5) Color development: TMB color development solution was added at 100 μL/well and wrapped with aluminium foil, and the color was developed at 37° C. without light for 8 min. [0188] (6) Termination of color development: terminal solution 1 M HCl was added to terminate the color development reaction at 100 μL/well. [0189] (7) Reading at 450 nm on the enzyme labeler. [0190]

Row | Kd [1] [pM] | Kd [2] [pM] | koff [2] [s⁻¹] | kon [2] [M⁻¹ s⁻¹] | Kd [4] [pM] | koff [4] [s⁻¹] | kon [4] [M⁻¹ s⁻¹] | IC50 [5] [pM] | Inhibition rate (%) [5] [%] | EC50 [7] [µg/mL] | Binder | EC50 [3] [pM] | Maximum average fluorescence value [3] | IC50(nM), Treg cell count after 72 h with IL2 and TNF-alpha [6] [nM] | Treg cell changes relative to IL-2(%) [6] [%]
1 | 396 | 317 | 0.000171 | 542000 |  |  |  |  |  |  | Antibody 11-xIgG1K (antibody, V domains shown, Rat-human chimeric antibody, human IgG1 kappa) VH: EVQLQQSGPELRRPGSSVKLSCKASGYSITDYLLHWVKHSPEHGLEWIGWIDPEDGKTKYGQKFQSKATLTADTSSNAAYMQLSSLTSEDSATYFCAANSGTGTMDAWGQGASVTVSS VL: DIVMTQSPTSMSISVGDRVTLNCKASQNVGSNVDWYQQKTGQSPKVLLYKASIRYTGVPDRFTGSGSGTEFTFTITNMQAEDLAVYFCMQSKSYPITFGSGTKLEIKR |  |  |  | 
2 |  |  |  |  | 1400 | 0.000169 | 120000 | > 100000 | 22.4 |  | Antibody 11 (antibody, V domains shown, Rat monoclonal antibody from a hybridoma) VH: EVQLQQSGPELRRPGSSVKLSCKASGYSITDYLLHWVKHSPEHGLEWIGWIDPEDGKTKYGQKFQSKATLTADTSSNAAYMQLSSLTSEDSATYFCAANSGTGTMDAWGQGASVTVSS VL: DIVMTQSPTSMSISVGDRVTLNCKASQNVGSNVDWYQQKTGQSPKVLLYKASIRYTGVPDRFTGSGSGTEFTFTITNMQAEDLAVYFCMQSKSYPITFGSGTKLEIK | 493 | 1010 |  | 
3 |  |  |  |  | < 7.58 | < 1e-05 | 1.32e+06 | 584 | 96 |  | Antibody 04 (antibody, V domains shown, Rat monoclonal antibody from a hybridoma) VH: EVHLQQSGPEVGRPGSSVKISCKASGYTFTDYIIHWVKQSPGQGLEWMGWIDPDYGNTDYADKFKKKATLTADASSNTAFIHLSRLTSEDTATYFCARDDGSPLVMDAWGQGTSVTVSS VL: NIQLTQSPSLLSASVGDRVTLSCNGSQNIDNYLAWFQQKLGEAPKLLIYSTYSLQTGIPSRFSGSRSGTDYTLTISSLQPEDVATYFCFQYNNGYMFGAGTKLELK | 25 | 1320 | 0.88 | 100
4 | 148 | 60.6 | 6.65e-05 | 1.1e+06 |  |  |  |  |  | 0.00581 | Antibody 04-xIgG1K (antibody, V domains shown, Rat-human chimeric antibody, human IgG1 kappa) VH: EVHLQQSGPEVGRPGSSVKISCKASGYTFTDYIIHWVKQSPGQGLEWMGWIDPDYGNTDYADKFKKKATLTADASSNTAFIHLSRLTSEDTATYFCARDDGSPLVMDAWGQGTSVTVSS VL: NIQLTQSPSLLSASVGDRVTLSCNGSQNIDNYLAWFQQKLGEAPKLLIYSTYSLQTGIPSRFSGSRSGTDYTLTISSLQPEDVATYFCFQYNNGYMFGAGTKLELKR |  |  |  | 
5 | 240 | 99.6 | 8.1e-05 | 813000 |  |  |  |  |  | 0.0143 | Antibody 10-xIgG1K (antibody, V domains shown, Rat-human chimeric antibody, human IgG1 kappa) VH: EVQLVETGGGLVQPGKSLKLTCATSGFTFSNAWMGWVRQSPEKQLEWVAQIKDKSNNYPTYYAESVKGRFTISRDDSESSVYLQMNSLKEEDTAIYYCTGYGDFFDYWGQGVVVTVSS VL: DIQMTQSPASLSASLGETVTIECRASEDIYNGLAWYQQKPGNSPRLLIFNANSLHTGVPSRFSGSGSGTQYSLKINSLQSEDVASYFCQQYYDHPLTFGSGIKLEIKR |  |  |  | 
6 |  |  |  |  | 150 | 7.4e-05 | 492000 | > 100000 | 12.2 |  | Antibody 10 (antibody, V domains shown, Rat monoclonal antibody from a hybridoma) VH: EVQLVETGGGLVQPGKSLKLTCATSGFTFSNAWMGWVRQSPEKQLEWVAQIKDKSNNYPTYYAESVKGRFTISRDDSESSVYLQMNSLKEEDTAIYYCTGYGDFFDYWGQGVVVTVSS VL: DIQMTQSPASLSASLGETVTIECRASEDIYNGLAWYQQKPGNSPRLLIFNANSLHTGVPSRFSGSGSGTQYSLKINSLQSEDVASYFCQQYYDHPLTFGSGIKLEIK | 77 | 907 |  | 
